13 proteins from patent publication US11491212 can be followed below.

The target of series [1] is Factor X (FX), P00742.
The target of series [2] is Factor X, P00742.
Chain of Factor X, P00742 (P00742 whole entry, looked up): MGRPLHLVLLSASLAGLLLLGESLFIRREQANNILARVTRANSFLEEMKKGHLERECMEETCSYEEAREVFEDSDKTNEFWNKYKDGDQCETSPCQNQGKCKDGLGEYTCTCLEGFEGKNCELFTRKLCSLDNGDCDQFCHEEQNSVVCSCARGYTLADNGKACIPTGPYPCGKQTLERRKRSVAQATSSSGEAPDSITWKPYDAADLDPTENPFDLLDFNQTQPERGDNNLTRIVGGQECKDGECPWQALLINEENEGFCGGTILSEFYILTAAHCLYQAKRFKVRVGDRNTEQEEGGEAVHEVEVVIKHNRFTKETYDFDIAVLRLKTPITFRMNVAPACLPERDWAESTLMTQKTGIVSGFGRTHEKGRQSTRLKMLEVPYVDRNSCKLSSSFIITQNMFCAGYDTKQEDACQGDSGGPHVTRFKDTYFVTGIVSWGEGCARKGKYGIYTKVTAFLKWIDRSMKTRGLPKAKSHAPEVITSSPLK

Chain of Factor X (FX), P00742 (P00742 whole entry, looked up): as above

B1: FIXa-K247N/N249S/R318Y/R338E/E410N (protein)
chain 1: not shown
chain 2: not shown
Take B1: in series [1], the “% of WT kcat/KM (against Catalyst Biosciences WT FIXa)” value stood at 501% and the kcat/KM for activation of FX by FIXa in the Xase complex (FVIIIa, PC/PS vesicles, Ca2+), fluorogenic Spectrafluor FXa read-out was 2.3e+08 M⁻¹ s⁻¹.

B2: FIXa-D104N/K106S/I251S/R318Y/R338E/R403E/E410N (protein)
chain 1: not shown
chain 2: not shown
In the case of B2, in series [1], the “% of WT kcat/KM (against Catalyst Biosciences WT FIXa)” value is reported as 263% and the kcat/KM for activation of FX by FIXa in the Xase complex (FVIIIa, PC/PS vesicles, Ca2+), fluorogenic Spectrafluor FXa read-out came to 1.2e+08 M⁻¹ s⁻¹.

B3: FIXa-Y155F/I251S/R318Y/R338E/R403E/E410N (protein)
chain 1: not shown
chain 2: not shown
On to B3, for which, in series [1], the “% of WT kcat/KM (against Catalyst Biosciences WT FIXa)” value stood at 363% and the kcat/KM for activation of FX by FIXa in the Xase complex (FVIIIa, PC/PS vesicles, Ca2+), fluorogenic Spectrafluor FXa read-out worked out at 1.7e+08 M⁻¹ s⁻¹.

B4: FIXa-I251S/R318Y/R338E/R403E/E410N (protein)
chain 1: not shown
chain 2: not shown
For B4, in series [1], the “% of WT kcat/KM (against Catalyst Biosciences WT FIXa)” value was 334% and the kcat/KM for activation of FX by FIXa in the Xase complex (FVIIIa, PC/PS vesicles, Ca2+), fluorogenic Spectrafluor FXa read-out came to 1.5e+08 M⁻¹ s⁻¹.

B5: FIXa-K247N/N249S/R318Y/R338E/R403E/E410N (protein)
chain 1: not shown
chain 2: not shown
Regarding B5, in series [1], the “% of WT kcat/KM (against Catalyst Biosciences WT FIXa)” value is given as 331% and the kcat/KM for activation of FX by FIXa in the Xase complex (FVIIIa, PC/PS vesicles, Ca2+), fluorogenic Spectrafluor FXa read-out was determined as 1.5e+08 M⁻¹ s⁻¹.

B6: FIXa Y155F/K247N/N249S/R318Y/T343R/R403E/E410N (protein)
chain 1: not shown
chain 2: not shown
Regarding B6, in series [2], the “% of WT kcat/KM” value turned out to be 350% and the kcat/KM (in general, the second-order rate constant that governs catalysis at low substrate concentration) stood at 1.6e+08 M⁻¹ s⁻¹.

B7: FIXa Y155F/K247N/N249S/R338E/E410N (protein)
chain 1: not shown
chain 2: not shown
Consider B7, for which, in series [2], the “% of WT kcat/KM” value stood at 1009% and the kcat/KM was 4.7e+08 M⁻¹ s⁻¹.

B8: FIXa-D104N/K106S/Y155F/K228N/K247N/N249S (protein)
chain 1: not shown
chain 2: not shown
B8: in series [1], the “% of WT kcat/KM (against Catalyst Biosciences WT FIXa)” value was 137% and the kcat/KM for activation of FX by FIXa in the Xase complex (FVIIIa, PC/PS vesicles, Ca2+), fluorogenic Spectrafluor FXa read-out was found to be 6.3e+07 M⁻¹ s⁻¹.

B9: FIXa-D104N/K106S/K247N/N249S/R318Y/R338E/R403E/E410N (protein)
chain 1: not shown
chain 2: not shown
As for B9, in series [1], the “% of WT kcat/KM (against Catalyst Biosciences WT FIXa)” value is 192% and the kcat/KM for activation of FX by FIXa in the Xase complex (FVIIIa, PC/PS vesicles, Ca2+), fluorogenic Spectrafluor FXa read-out worked out at 8.8e+07 M⁻¹ s⁻¹.

B10: FIXa K247N/N249S/R318Y/R338E/T343R/E410N (protein)
chain 1: not shown
chain 2: not shown
B10: in series [2], the “% of WT kcat/KM” value worked out at 687% and the kcat/KM is 3.2e+08 M⁻¹ s⁻¹.

B11: FIXa-D104N/K106S/I251S/R318Y/R338E/E410N (protein)
chain 1: not shown
chain 2: not shown
As for B11, in series [1], the “% of WT kcat/KM (against Catalyst Biosciences WT FIXa)” value stood at 291% and the kcat/KM for activation of FX by FIXa in the Xase complex (FVIIIa, PC/PS vesicles, Ca2+), fluorogenic Spectrafluor FXa read-out came out at 1.3e+08 M⁻¹ s⁻¹.

B12: FIXa-R318Y/R338E/E410S (protein)
chain 1: not shown
chain 2: not shown
As to B12, in series [1], the “% of WT kcat/KM (against Catalyst Biosciences WT FIXa)” value is listed as 708% and the kcat/KM for activation of FX by FIXa in the Xase complex (FVIIIa, PC/PS vesicles, Ca2+), fluorogenic Spectrafluor FXa read-out was determined as 3.3e+08 M⁻¹ s⁻¹.

B13: FIXa K247N/N249S/R318Y/T343R/R403E/E410N (protein)
chain 1: not shown
chain 2: not shown
For the protein B13, in series [2], the “% of WT kcat/KM” value was 279% and the kcat/KM is 1.3e+08 M⁻¹ s⁻¹.
